The results in this text go back to US20120328512A1 (BRACCO IMAGING S P A, published 2012).

T1: DDE
T1 chain 1: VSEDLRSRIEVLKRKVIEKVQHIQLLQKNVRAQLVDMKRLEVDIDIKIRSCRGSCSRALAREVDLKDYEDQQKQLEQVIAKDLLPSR
T1 chain 2: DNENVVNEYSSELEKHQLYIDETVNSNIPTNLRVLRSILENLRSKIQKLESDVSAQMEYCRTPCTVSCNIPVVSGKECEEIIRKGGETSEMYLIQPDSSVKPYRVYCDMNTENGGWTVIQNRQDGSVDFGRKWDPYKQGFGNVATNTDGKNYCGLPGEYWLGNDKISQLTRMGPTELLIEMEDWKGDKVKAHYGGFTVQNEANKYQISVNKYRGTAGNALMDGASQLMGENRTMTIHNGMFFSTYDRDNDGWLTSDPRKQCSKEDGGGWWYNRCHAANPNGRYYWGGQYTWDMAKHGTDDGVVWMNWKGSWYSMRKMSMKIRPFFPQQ
T1 chain 3: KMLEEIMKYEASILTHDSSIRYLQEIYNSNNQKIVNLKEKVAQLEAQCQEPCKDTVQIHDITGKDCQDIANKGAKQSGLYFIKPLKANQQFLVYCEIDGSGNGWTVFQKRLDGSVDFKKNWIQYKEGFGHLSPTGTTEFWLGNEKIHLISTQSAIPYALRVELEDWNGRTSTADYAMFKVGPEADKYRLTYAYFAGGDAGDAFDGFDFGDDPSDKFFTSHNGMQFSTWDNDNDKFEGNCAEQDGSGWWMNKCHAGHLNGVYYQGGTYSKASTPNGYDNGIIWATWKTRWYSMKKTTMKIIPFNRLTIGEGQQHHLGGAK
T1 chain 4: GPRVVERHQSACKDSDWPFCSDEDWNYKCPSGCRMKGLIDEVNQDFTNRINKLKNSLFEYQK
T1 chain 5: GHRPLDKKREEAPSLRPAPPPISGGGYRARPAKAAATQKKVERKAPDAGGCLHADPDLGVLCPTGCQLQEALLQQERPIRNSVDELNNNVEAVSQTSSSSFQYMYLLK
T1 chain 6: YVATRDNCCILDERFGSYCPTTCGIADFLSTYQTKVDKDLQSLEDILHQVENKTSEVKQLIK

Bridge positions count the residues as written; N and C are the ends. Square brackets hold non-standard residues; d marks the D form. * marks the point of attachment. αGalNAc = CC(=O)N[C@@H]1[C@@H](O)[C@@H](O)[C@@H](CO)O[C@@H]1*; Phe(3,4-F2) = N[C@@H](Cc1ccc(F)c(F)c1)C(=O)O; Thf2ca = tetrahydrofuran-2-carboxylic acid; Phe(4-F) = N[C@@H](Cc1ccc(F)cc1)C(=O)O; Cha = N[C@@H](CC1CCCCC1)C(=O)O; AEEA = NCCOCCOCC(=O)O

In one assay the target is DDE. Briefly: competition fluorescence polarization: unlabeled peptide against Seq000-CF5 tracer on DDE; n = 2. Background: In fluorescence polarisation assays a small probe gives low polarisation when free and higher when bound to something large.
Take Ac-WQPCPWESWT[Phe(3,4-F2)]CWDPGGGK-NH2 (disulfide 4-12) [Seq020-P]: the Rel IC50 (ratio to the reference peptide) came to 0.428.

On to Ac-WQPCPWESWT[Cha]CWDPGGGK-NH2 (disulfide 4-12) [Seq018-P], for which the Rel IC50 (ratio to the reference peptide) came to 0.494.

For Thf2ca-WQPCPWESWTFCWDPGGGK-NH2 (disulfide 4-12) [Seq028-P], the Rel IC50 (ratio to the reference peptide) stood at 0.616.

For Ac-S(αGalNAc)WQPCPWESWTFCWDPGGGK-NH2 (disulfide 5-13) [Seq027-P], the Rel IC50 (ratio to the reference peptide) came to 0.559.

On to Ac-WQPCPWESWT[Phe(4-F)]CWDPGGGK-NH2 (disulfide 4-12) [Seq019-P], for which the Rel IC50 (ratio to the reference peptide) was 0.601.

Take Ac-GWQPCPWESWTFCWDPGGGK-NH2 (disulfide 5-13) [Seq016-P]: the Rel IC50 (ratio to the reference peptide) amounted to 1.04.

H-GWQPCPWESWTFCWDPGGGK-NH2 (disulfide 5-13) [Seq021-P]: the Rel IC50 (ratio to the reference peptide) worked out at 0.622.

A further assay addresses T1, DDE. The assay is described as above.
On to Ac-GGRGWQPCPWESWTFCWDPGGGK-NH2 (disulfide 8-16) [Seq015-P], for which the “Rel IC50” value was 0.37 ratio to the reference peptide.

Consider Ac-SGSG[AEEA]WQPCPWESWTFCWDPGGGK-NH2 (disulfide 9-17) [Seq017-P], for which the “Rel IC50” value is 0.714 ratio to the reference peptide.
